Data published in US20080176263.

T1: TNO211 peptide (DABCYL-GABA-Pro-Gln-Gly-Leu-Glu(EDANS)-Ala-Lys-NH2)
T1 chain: PQGLEAK

B1: MMP-2 (protein)
chain: YNFFPRKPKWDKNQITYRIIGYTPDLDPETVDDAFARAFQVWSDVTPLRFSRIHDGEADIMINFGRWEHGDGYPFDGKDGLLAHAFAPGTGVGGDSHFDDDELWTLGEGQVVRVKYGNADGEYCKFPFLFNGKEYNSCTDTGRSDGFLWCSTTYNFEKDGKYGFCPHEALFTMGGNAEGQPCKFPFRFQGTSYDSCTTEGRTDGYRWCGTTEDYDRDKKYGFCPETAMSTVGGNSEGAPCVFPFTFLGNKYESCTSAGRSDGKMWCATTANYDDDRKWGFCPDQGYSLFLVAAHEFGHAMGLEHSQDPGALMAPIYTYTKNFRLSQDDIKGIQELYGASPDIDLGTGPTPTLGPVTPEICKQDIVFDGIAQIRGEIFFFKDRFIWRTVTPRDKPMGPLLVATFWPELPEKIDAVYEAPQEEKAVFFAGNEYWIYSASTLERGYPKPLTSLGLPPDVQRVDAAFNWSKNKKTYIFAGDKFWRYNEVKKKMDPGFPKLIADAWNAIPDNLDAVVDLQGGGHSYFFKGAYYLKLENQSLKSVKFGSIKSDWLGC
B2: proteinase K (protein)
chain: AAQTNAPWGLARISSTSPGTSTYYYDESAGQGSCVYVIDTGIEASHPEFEGRAQMVKTYYYSSRDGNGHGTHCAGTVGSRTYGVAKKTQLFGVKVLDDNGSGQYSTIIAGMDFVASDKNNRNCPKGVVASLSLGGGYSSSVNSAAARLQSSGVMVAVAAGNNNADARNYSPASEPSVCTVGASDRYDRRSSFSNYGSVLDIFGPGTSILSTWIGGSTRSISGTSMATPHVAGLAAYLMTLGKTTAASACRYIADTANKGDLSNIPFGTVNLLAYNNYQA

How the values were obtained:
[1] = target: T1, TNO211 peptide …

Protein | protease activity (fluorescence from cleavage of substrate TNO211), relative to pronase [1] [%] | cleavage of the dye-labelled immobilized substrate (color generation) (RH substrate) | visible color from cleavage of the dye-labelled immobilized substrate (Substrate AA)
B1 | 17±4 |  | 
B2 |  | none of the enzyme preparations were successful in cleaving the RH substrate | AA substrate reacted with pronase and proteinase K did produce a visible color within 2.5 h at 37 °C
